# In patent US5573928A, “Porcine vasoactive intestinal peptide receptor and DNA” (Eli Lilly and Company, priority 1993, dated 1996):
# Where no end group is shown, it is not given here.
# Target: T1, pVIP receptor (Sus scrofa, UniProt Q28992)
# T1 sequence (Q28992 32-458): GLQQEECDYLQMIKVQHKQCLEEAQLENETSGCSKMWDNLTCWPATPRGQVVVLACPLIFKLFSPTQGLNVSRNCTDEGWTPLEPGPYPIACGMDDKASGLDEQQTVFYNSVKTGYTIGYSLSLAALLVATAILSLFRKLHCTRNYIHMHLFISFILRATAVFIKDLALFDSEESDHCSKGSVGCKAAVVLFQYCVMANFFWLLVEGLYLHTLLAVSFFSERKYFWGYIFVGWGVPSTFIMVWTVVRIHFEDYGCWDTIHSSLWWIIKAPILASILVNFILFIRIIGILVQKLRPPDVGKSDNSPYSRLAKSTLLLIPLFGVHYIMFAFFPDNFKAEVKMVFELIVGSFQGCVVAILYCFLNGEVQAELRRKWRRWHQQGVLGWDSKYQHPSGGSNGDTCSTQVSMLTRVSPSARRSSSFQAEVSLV
# Assay: cAMP assay in 293/VIPR cells expressing the pVIP receptor
# Assay type: cell-based, porcine
# Settings: for intracellular [cAMP]: 293/VIPR cells, 45 min at 37° C.
# Procedure: Briefly, a double stranded counterpart to Sequence ID#i, externally modified to incorporate convenient restriction sites, was integrated into the pRc/CMV vector and recombinantly expressed in 293 cells. The cDNA transcript included the signal peptide region of the native transcript facilitating proper orientation and integration into the transfected cell membrane. […] The cAMP level was also measured upon exposure of the transfected cells in response to the addition of secretin, and GHRH, two peptides closely related to VIP.
# After removing the solution, 0.5 ml of 60% ethanol was added to lyse the cells in each well. An aliquot was taken, dried in vacUo, and the level of cAMP was determined.
# Cells were washed twice with the incubation buffer (Dulbecco's modified Eagle's medium containing 0.5 mM 1-methyl-3-isobutylxanthine and 1 mg/ml BSA). […] After removing the buffer, 0.5 ml of 60% ethanol was added to lyse the cells in each well.
substance,measurement,setting,value
"GHRH: growth hormone-releasing hormone, a peptide closely related to VIP",intracellular [cAMP],hormone concentration 10^-6 M,400 pmoles/10^5 cells
same,intracellular [cAMP],hormone concentration 10^-7 M,404 pmoles/10^5 cells
same,intracellular [cAMP],hormone concentration 10^-8 M,400 pmoles/10^5 cells
same,intracellular [cAMP],hormone concentration 10^-9 M,105 pmoles/10^5 cells
same,intracellular [cAMP],hormone concentration 10^-10 M,< 10 pmoles/10^5 cells
same,intracellular [cAMP],hormone concentration 10^-11 M,< 10 pmoles/10^5 cells
"porcine secretin (HSDGTFTSELSRLRDSARLQRLLQGLV; ends and bridges not checked; UniProt P63298 33-59, looked up) [peptide hormone closely related to VIP, commercially available from Peninsula Laboratories]",intracellular [cAMP],hormone concentration 10^-6 M,440 pmoles/10^5 cells
same,intracellular [cAMP],hormone concentration 10^-7 M,240 pmoles/10^5 cells
same,intracellular [cAMP],hormone concentration 10^-8 M,185 pmoles/10^5 cells
same,intracellular [cAMP],hormone concentration 10^-9 M,28 pmoles/10^5 cells
same,intracellular [cAMP],hormone concentration 10^-10 M,< 10 pmoles/10^5 cells
same,intracellular [cAMP],hormone concentration 10^-11 M,< 10 pmoles/10^5 cells
porcine vasoactive intestinal polypeptide [VIP],intracellular [cAMP],hormone concentration 10^-6 M,420 pmoles/10^5 cells
same,intracellular [cAMP],hormone concentration 10^-7 M,440 pmoles/10^5 cells
same,intracellular [cAMP],hormone concentration 10^-8 M,404 pmoles/10^5 cells
same,intracellular [cAMP],hormone concentration 10^-9 M,64 pmoles/10^5 cells
same,intracellular [cAMP],hormone concentration 10^-10 M,15 pmoles/10^5 cells
same,intracellular [cAMP],hormone concentration 10^-11 M,< 10 pmoles/10^5 cells
same,intracellular cAMP levels upon exposure (in words),transfected 293 cells expressing the protein of Sequence ID#2,intracellular increase in cAMP levels
